Assay results from the supplement of paper PMC10126150.
± gives the standard deviation of the averaged measurements.

Each sequence was assayed on ATP (assay: switch fluorescence ratio, 500 uM ATP over buffer (Cy3 cluster intensity, sum of 5 cycles each) (fold (ratio)); higher = stronger signal-on switching upon ATP binding; sequences stand for … in TCGTCGGCAGCGTCAGATGTGTATAAGAGACAGTTTTTTTTTTTTTTTTTTTTTTTTT…TC). Details: aptamer strand: ATP DNA aptamer (quencher-CACCTGGGGGAGTATTGCGGAGGAAGG + anchor), 100 nM annealed; ATP concentration: 500 uM.
Summary of the method: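 Switching-strand clusters labelled with Cy3 on a modified Illumina MiSeq flow-cell were annealed to 100 nM quencher-labelled ATP aptamer, imaged in selection buffer, and re-imaged after 15 min with 500 uM ATP at 22 °C. This was done over five cycles with NaOH stripping and re-annealing in between. The fluorescence ratio is summed target-cycle over summed buffer-cycle Cy3 intensity per cluster, averaged per switch-domain sequence, excluding clusters outside 100-1000 RFU.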
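Also: ATP exposure 15 min at 22 °C before imaging.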

| Sequence | switch fluorescence ratio |
| --- | --- |
| GATTATCTGG | 0.984 ± 0.025 |
| GATTATGTTA | 0.9772 ± 0.007 |
| GATTATTTTC | 1.03 ± 0.061 |
| GATTATTTTT | 0.994 ± 0.028 |
| GATTCCGTCC | 1.177 ± 0.0046 |
| GATTCGTCGG | 1.01 ± 0.021 |
| GATTGAAGCC | 0.962 ± 0.064 |
| GATTGAGATT | 0.981 ± 0.033 |
| GATTGAGCCC | 0.971 ± 0.037 |
| GATTGAGGAG | 0.981 ± 0.03 |
| GATTGAGGGA | 1.01 ± 0.016 |
| GATTGAGGGG | 1.01 ± 0.017 |
| GATTGAGTTT | 0.9866 ± 0.0089 |
| GATTGCATGG | 1.02 ± 0.013 |
| GATTGCTCGT | 0.975 ± 0.028 |
| GATTGCTTTC | 1.02 ± 0.023 |
| GATTGGGACT | 0.975 ± 0.027 |
| GATTGGGAGC | 1.01 ± 0.037 |
| GATTGGGAGG | 1.03 ± 0.034 |
| GATTGGGCCA | 0.996 ± 0.017 |
| GATTGGGGGG | 1 ± 0.029 |
| GATTGGGTAG | 0.999 ± 0.02 |
| GATTGGGTGA | 0.972 ± 0.011 |
| GATTGGTACT | 1 ± 0.02 |
| GATTGTTTTA | 1.02 ± 0.016 |

| Sequence | switch fluorescence ratio |
| --- | --- |
| GATTTAAAGC | 0.984 ± 0.034 |
| GATTTACAGC | 1.02 ± 0.054 |
| GATTTAGTAC | 1.01 ± 0.067 |
| GATTTCAGTG | 0.974 ± 0.023 |
| GATTTCATCT | 0.995 ± 0.032 |
| GATTTCGGTC | 1.05 ± 0.056 |
| GATTTGATGG | 0.987 ± 0.045 |
| GATTTGGAAT | 0.986 ± 0.037 |
| GATTTGGATT | 0.993 ± 0.012 |
| GATTTGGTAG | 1 ± 0.023 |
| GATTTGTCGT | 0.986 ± 0.022 |
| GATTTTACGT | 1.021 ± 0.0067 |
| GATTTTAGTG | 0.969 ± 0.015 |
| GATTTTCATG | 1 ± 0.013 |
| GATTTTGCCG | 1.11 ± 0.1 |
| GATTTTGTGT | 0.98 ± 0.043 |
| GATTTTTATT | 0.988 ± 0.025 |
| GATTTTTCAT | 1 ± 0.034 |
| GATTTTTTCG | 0.997 ± 0.01 |
| GATTTTTTGG | 0.991 ± 0.034 |
| GCAAAAAAAC | 1.02 ± 0.067 |
| GCAAAAGGAG | 1 ± 0.059 |
| GCAAAGGGCG | 1.03 ± 0.034 |
| GCAAAGGGGG | 0.9758 ± 0.006 |
| GCAACCCGGA | 1.01 ± 0.012 |

| Sequence | switch fluorescence ratio |
| --- | --- |
| GCAACCCGGT | 1.028 ± 0.0037 |
| GCAACTTCGG | 0.992 ± 0.016 |
| GCAAGAGGGG | 1.06 ± 0.039 |
| GCAAGAGTGG | 1 ± 0.034 |
| GCAAGATTCA | 1 ± 0.021 |
| GCAAGGCGAG | 1.3 ± 0.031 |
| GCAAGGGGAT | 1.06 ± 0.11 |
| GCAAGGTTTT | 0.979 ± 0.027 |
| GCAAGTGGTG | 1.02 ± 0.03 |
| GCAATCTGGG | 1.38 ± 0.079 |
| GCAATGAGGG | 1.14 ± 0.034 |
| GCAATGGCAT | 0.987 ± 0.03 |
| GCAATTAAAG | 1.12 ± 0.14 |
| GCAATTAATG | 1 ± 0.015 |
| GCAATTCTAC | 3.085 ± 0.025 |
| GCAATTGAGT | 0.997 ± 0.036 |
| GCAATTGGTC | 1.25 ± 0.06 |
| GCAATTTGAT | 1.01 ± 0.02 |
| GCACATAGGG | 1.02 ± 0.011 |
| GCACATGAGA | 1.02 ± 0.021 |
| GCACCATTCC | 1.72 ± 0.07 |
| GCACCCCGCC | 1.33 ± 0.036 |
| GCACCGGGGC | 0.971 ± 0.015 |
| GCACGAGTGC | 0.97 ± 0.02 |
| GCACGCCGAG | 1.01 ± 0.012 |

| Sequence | switch fluorescence ratio |
| --- | --- |
| GCACGCCTGG | 1.0842 ± 0.00097 |
| GCACGGGCCC | 0.99 ± 0.028 |
| GCACGGGGGA | 0.9884 ± 0.0077 |
| GCACGTAGCG | 1.06 ± 0.046 |
| GCACTCAGGC | 0.994 ± 0.03 |
| GCACTCGGTG | 1.01 ± 0.048 |
| GCACTGGT | 1.04 ± 0.062 |
| GCACTGGTAT | 1.05 ± 0.024 |
| GCACTTCCCT | 1.19 ± 0.014 |
| GCAGATGGTT | 1.01 ± 0.015 |
| GCAGATTTTG | 0.98 ± 0.038 |
| GCAGCAGGGG | 1.84 ± 0.23 |
| GCAGCCCCTG | 1.02 ± 0.048 |
| GCAGCGTTCT | 1.04 ± 0.069 |
| GCAGCTGGG | 1.03 ± 0.039 |
| GCAGGATCCG | 0.99684 ± 0.00077 |
| GCAGGATGAA | 0.97 ± 0.042 |
| GCAGGGATGC | 1 ± 0.057 |
| GCAGGGGACG | 1.05 ± 0.015 |
| GCAGGGGCCC | 1.02 ± 0.027 |
| GCAGGGGGCC | 1.4 ± 0.63 |
| GCAGGGTGCG | 1 ± 0.032 |
| GCAGGGTGGC | 1 ± 0.062 |
| GCAGGTGACT | 1.33 ± 0.077 |
| GCAGGTTCAG | 0.975 ± 0.021 |
